Data set [1] concerns CC(C)(COP(=O)(O)OP(=O)(O)OC[C@H]1O[C@@H](n2cnc3c(N)ncnc32)[C@H](O)[C@@H]1OP(=O)(O)O)[C@@H](O)C(=O)NCCC(=O)NCCSC(=O)c1ccccc1. As to the kind of experiment: purified protein. The settings on record: 4 mM NADPH, 50 mM Bis-Tris pH 6.5, 28 °C, α:β 1:1.
From the text: HPLC-DAD detection of benzaldehyde, Michaelis-Menten fit on PdBS
The target of data set [2] is purified recombinant Arabidopsis thaliana benzaldehyde synthase β subunit (AtBSβ) (Arabidopsis thaliana). Briefly: SEC; purified recombinant proteins at ~1 mg/mL on Superdex 200 Increase 10/300 GL in phosphate-buffered saline. Background: Size exclusion chromatography separates by hydrodynamic size, large species first.
The target of data set [3] is purified recombinant PhBSβ (from pMAL-c5X, MBP tag) (Petunia hybrida). The description is as above.
In data set [4] the target is purified recombinant tomato (Solanum lycopersicum) benzaldehyde synthase α subunit (SlBSα) (Solanum lycopersicum (tomato)).
Data set [5] concerns the target T1, AtBS (Arabidopsis thaliana, UniProt F4JFB8+Q9SG99).
T1 construct: gene SDRD; CDS of both subunits from flower cDNA in pMAL-c5X (MBP-tagged), E. coli; amylose resin after 1:1 mixing; heterodimer
T1 sequence (F4JFB8 1-280): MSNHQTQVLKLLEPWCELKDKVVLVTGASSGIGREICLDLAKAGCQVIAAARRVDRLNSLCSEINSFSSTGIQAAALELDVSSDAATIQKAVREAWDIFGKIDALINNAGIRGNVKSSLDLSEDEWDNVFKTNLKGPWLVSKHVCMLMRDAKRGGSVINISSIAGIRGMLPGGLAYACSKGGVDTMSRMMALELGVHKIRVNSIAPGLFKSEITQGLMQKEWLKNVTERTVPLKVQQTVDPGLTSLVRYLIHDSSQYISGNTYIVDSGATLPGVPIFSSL
T1 sequence (Q9SG99 1-266): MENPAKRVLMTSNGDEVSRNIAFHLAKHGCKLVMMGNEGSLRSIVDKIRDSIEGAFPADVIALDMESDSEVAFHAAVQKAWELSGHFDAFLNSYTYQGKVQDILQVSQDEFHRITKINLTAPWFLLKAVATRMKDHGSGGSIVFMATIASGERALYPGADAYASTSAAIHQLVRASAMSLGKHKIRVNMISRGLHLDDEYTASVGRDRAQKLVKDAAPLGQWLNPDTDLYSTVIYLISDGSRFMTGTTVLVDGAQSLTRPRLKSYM
Briefly: HPLC-DAD detection of benzaldehyde, Michaelis-Menten fit. The format is biochemical. The settings on record: 4 mM NADPH; 50 mM Bis-Tris pH 6.5; 28 °C; α:β 1:1. The source says: HPLC-DAD detection of benzaldehyde, Michaelis-Menten fit on AtBS

Data set [6] has as its target purified recombinant Arabidopsis thaliana benzaldehyde synthase α subunit (AtBSα) (Arabidopsis thaliana).

One may read the Km as the substrate concentration at which the rate is half of its maximum. As a reminder, the Vmax is the top rate of the reaction or transport when substrate is in excess. A word on the kcat: it is the number of substrate molecules converted per active site and unit of time at saturation. Usually kcat/Km stands for the turnover number divided by the Michaelis constant. With PdBS (Prunus dulcis), in data set [1], the Km worked out at 629.4 ± 67.7 µM, the Vmax was determined as 2.12 µmol/min/mg, the kcat is 5.26 ± 0.2 s⁻¹ and the kcat/Km is 8400 ± 1000 M⁻¹ s⁻¹. Usually stoichiometry N stands for a count of units in the complex or per binding partner. Regarding “purified recombinant Arabidopsis thaliana benzaldehyde synthase β subunit (AtBSβ) (natural protein)”, in data set [2], the stoichiometry N is 4. Regarding “purified recombinant PhBSβ (from pMAL-c5X, MBP tag) (natural protein)”, in data set [3], the stoichiometry N was determined as 4. In addition, the apparent BS activity of the cross-species hybrid SlBSα-PhBSβ compared with SlBS (fold lower than SlBS) in data set [4] amounted to 6.5. As to `CC(C)(COP(=O)(O)OP(=O)(O)OC[C@H]1O[C@@H](n2cnc3c(N)ncnc32)[C@H](O)[C@@H]1OP(=O)(O)O)[C@@H](O)C(=O)NCCC(=O)NCCSC(=O)c1ccccc1` [benzoyl-CoA], in data set [5], the Km turned out to be 243 ± 28.2 µM.

For “purified recombinant tomato (Solanum lycopersicum) benzaldehyde synthase β subunit (SlBSβ) (natural protein)”, the apparent BS activity of the cross-species hybrid AtBSα-SlBSβ relative to AtBS (fold higher than AtBS) in data set [6] was found to be 4.6. Take “purified recombinant almond (Prunus dulcis) benzaldehyde synthase β subunit (PdBSβ) (natural protein)”: the apparent BS activity of the cross-species hybrid SlBSα-PdBSβ compared with SlBS (fold higher than SlBS) in data set [4] was found to be 2.7. Further, the apparent BS activity of the cross-species hybrid AtBSα-PdBSβ relative to AtBS (fold higher than AtBS) in data set [6] was 7.8.

The values are drawn from PMC8924275, “A peroxisomal heterodimeric enzyme is involved in benzaldehyde synthesis in plants” (Nature Communications, 2022).
